Experimental data published in article PMC2120816.

Target: thyroglobulin of normal mice (mouse (endogenous in thyroid tissue)) (UniProt O08710)
Assay: native gel or EMSA

## thyroglobulin of normal mice, O08710 21-2766
  stoichiometry N: 2
